Reference: patent US20230158141A1 (YAFEI SHANGHAI BIOLOG MEDICINE SCIENCE AND TECHNOLOGY, published 2023)
Positions count from the first letter of the chain named. Numbers in names are those of the source.

B1: anti-CTLA-4 antibody light chain S31C-R4-1 (antibody, human IgG1, kappa, V domains shown)
VH: QVQLVESGGGVVQPGRSLRLSCAASGFTFSSYTMHWVRQAPGKGLEWVTFISYDGNNKYYADSVKGRFTISRDNSKNTLYLQMNSLRAEDTAIYYCARTGWLGPFDYWGQGTLVTVSS
VL: not shown
modifications: R4-1 on Cys 31
B2: anti-CTLA-4 antibody heavy chain S30C (antibody, human IgG1, kappa, V domains shown)
VH: B1 VH with S30C
VL: not shown
B3: anti-CTLA-4 antibody heavy chain G55C (antibody, human IgG1, kappa, V domains shown)
VH: B1 VH with G55C
VL: not shown
B4: anti-CTLA-4 antibody light chain G93C-R4-1 (antibody, human IgG1, kappa, V domains shown)
VH: B1 VH
VL: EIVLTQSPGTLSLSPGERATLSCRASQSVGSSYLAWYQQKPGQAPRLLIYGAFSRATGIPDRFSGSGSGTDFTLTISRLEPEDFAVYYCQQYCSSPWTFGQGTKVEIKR
modifications: R4-1 on Cys 93
B5: anti-CTLA-4 antibody light chain G58C-R4-1 (antibody, human IgG1, kappa, V domains shown)
VH: B1 VH
VL: not shown
modifications: R4-1 on Cys 58
B6: anti-CTLA-4 antibody heavy chain T33C (antibody, human IgG1, kappa, V domains shown)
VH: B1 VH with T33C
VL: not shown
B7: anti-CTLA-4 antibody heavy chain L102C (antibody, human IgG1, kappa, V domains shown)
VH: B1 VH with L102C
VL: not shown
B8: anti-CTLA-4 antibody light chain S32C-R4-1 (antibody, human IgG1, kappa, V domains shown)
VH: B1 VH
VL: not shown
modifications: R4-1 on Cys 32
B9: anti-CTLA-4 antibody heavy chain S63C (antibody, human IgG1, kappa, V domains shown)
VH: B1 VH with S63C
VL: not shown
B10: anti-CTLA-4 antibody heavy chain S31C (antibody, human IgG1, kappa, V domains shown)
VH: B1 VH with S31C
VL: not shown
B11: anti-CTLA-4 antibody heavy chain G66C (antibody, human IgG1, kappa, V domains shown)
VH: B1 VH with G66C
VL: not shown
B12: anti-CTLA-4 antibody light chain A35C-R4-1 (antibody, human IgG1, kappa, V domains shown)
VH: B1 VH
VL: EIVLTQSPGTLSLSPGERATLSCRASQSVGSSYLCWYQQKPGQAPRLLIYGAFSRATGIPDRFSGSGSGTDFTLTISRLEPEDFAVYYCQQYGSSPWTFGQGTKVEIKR
modifications: R4-1 on Cys 35
B13: Ipilimumab L54 Arg to Cys (antibody, V domains shown)
VH: B1 VH
VL: not shown
modifications: chain 2 pos 55 (Kabat L54): introduced Cys carries R4-26 (or S47, 40 kD PEG linker) on its thiol, written C
B14: anti-CD28 antibody heavy chain G54C-R4-1 (antibody, human IgG4, kappa, V domains shown)
VH: QVQLVQSGAEVKKPGASVKVSCKASGYTFTSYYIHWVRQAPGQGLEWIGCIYPCNVNTNYNEKFKDRATLTVDTSISTAYMELSRLRSDDTAVYFCTRSHYGLDWNFDVWGQGTTVTVSS
VL: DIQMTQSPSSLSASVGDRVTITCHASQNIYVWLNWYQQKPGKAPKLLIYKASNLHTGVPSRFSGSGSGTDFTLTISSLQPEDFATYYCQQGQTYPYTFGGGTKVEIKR
modifications: R4-1 on Cys 54
B15: anti-CD28 antibody heavy chain Y27C-R4-4 (antibody, human IgG4, kappa, V domains shown)
VH: B14 VH with Y27C, C54G
VL: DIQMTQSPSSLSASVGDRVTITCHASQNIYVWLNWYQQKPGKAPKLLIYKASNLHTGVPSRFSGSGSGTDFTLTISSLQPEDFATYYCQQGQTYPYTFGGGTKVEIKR
modifications: R4-4 on Cys 27
B16: anti-CD28 antibody heavy chain Y52C-R4-4 (antibody, human IgG4, kappa, V domains shown)
VH: B14 VH with Y52C, C54G
VL: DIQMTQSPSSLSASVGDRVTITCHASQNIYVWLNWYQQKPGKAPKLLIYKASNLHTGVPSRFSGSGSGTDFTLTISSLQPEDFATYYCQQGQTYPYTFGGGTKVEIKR
modifications: R4-4 on Cys 52
B17: anti-CD28 antibody heavy chain T58C-R4-1 (antibody, human IgG4, kappa, V domains shown)
VH: B14 VH with C54G, T58C
VL: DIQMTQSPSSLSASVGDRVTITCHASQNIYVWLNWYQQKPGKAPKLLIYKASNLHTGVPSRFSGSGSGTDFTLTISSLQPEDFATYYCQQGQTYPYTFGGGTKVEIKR
modifications: R4-1 on Cys 58
B18: anti-CD28 antibody heavy chain S31C-R4-1 (antibody, human IgG4, kappa, V domains shown)
VH: B14 VH with S31C, C54G
VL: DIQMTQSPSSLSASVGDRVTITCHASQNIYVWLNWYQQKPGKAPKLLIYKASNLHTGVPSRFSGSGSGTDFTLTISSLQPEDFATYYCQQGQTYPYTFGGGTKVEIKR
modifications: R4-1 on Cys 31
B19: anti-CD28 antibody heavy chain S99C-R4-1 (antibody, human IgG4, kappa, V domains shown)
VH: B14 VH with C54G, S99C
VL: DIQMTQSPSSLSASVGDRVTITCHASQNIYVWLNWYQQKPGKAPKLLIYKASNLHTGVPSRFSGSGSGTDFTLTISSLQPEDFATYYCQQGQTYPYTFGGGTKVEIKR
modifications: R4-1 on Cys 99
B20: anti-CD28 antibody heavy chain T30C-R4-1 (antibody, human IgG4, kappa, V domains shown)
VH: B14 VH with T30C, C54G
VL: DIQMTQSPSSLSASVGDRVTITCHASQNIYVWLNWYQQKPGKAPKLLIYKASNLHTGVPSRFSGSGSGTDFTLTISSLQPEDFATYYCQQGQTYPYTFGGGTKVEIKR
modifications: R4-1 on Cys 30
B21: anti-CD28 antibody heavy chain G102C-R4-1 (antibody, human IgG4, kappa, V domains shown)
VH: B14 VH with C54G, G102C
VL: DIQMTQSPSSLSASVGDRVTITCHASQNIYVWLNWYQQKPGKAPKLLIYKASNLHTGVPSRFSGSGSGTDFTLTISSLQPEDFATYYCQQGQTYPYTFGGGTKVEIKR
modifications: R4-1 on Cys 102

How the values were obtained:
CTLA-4 [1] = biological target: T1, CTLA-4 (UniProt P16410 36-162, limits assumed); experiment: ELISA, conjugate vs WT antibody
T1 sequence (P16410 36-162 limits assumed): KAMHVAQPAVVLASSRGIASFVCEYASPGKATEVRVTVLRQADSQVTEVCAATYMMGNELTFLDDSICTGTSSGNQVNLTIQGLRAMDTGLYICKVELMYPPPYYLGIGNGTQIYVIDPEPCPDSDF

CTLA-4 [2] = biological target: T1, CTLA-4; experiment: ELISA, OD mutant/OD WT; A=90-110%
CTLA-4 [3] = biological target: T2, CTLA-4 (UniProt P16410 36-162, limits assumed); experiment: ELISA; S47 on the Cys
T2 construct: also called CTLA-4 protein
T2 sequence (P16410 36-162 limits assumed): as above

CD28 = CD28 (UniProt P10747 19-152, limits assumed); experiment: ELISA, conjugate vs WT antibody

Binder | binding activity (OD after mutation/OD wild type) (CTLA-4 [2]) | binding activity (% of WT) (CD28) | further results
B1 |  |  | binding activity (% of WT) (CTLA-4 [1]): 80.9%
B2 | 90 to 110% |  | 
B3 | 90 to 110% |  | 
B4 |  |  | binding activity (% of WT) (CTLA-4 [1]): 99.1%
B5 |  |  | binding activity (% of WT) (CTLA-4 [1]): 88.1%
B6 | 90 to 110% |  | 
B7 | 90 to 110% |  | 
B8 |  |  | binding activity (% of WT) (CTLA-4 [1]): 99%
B9 | 90 to 110% |  | 
B10 | 90 to 110% |  | 
B11 | 90 to 110% |  | 
B12 |  |  | binding activity (% of WT) (CTLA-4 [1]): 91.5%
B13 |  |  | Activity after S47 (40 kD) blocking (CTLA-4 [3]): 17%
B14 |  | 97.9% | 
B15 |  | 94.2% | 
B16 |  | 91.6% | 
B17 |  | 89.3% | 
B18 |  | 97.5% | 
B19 |  | 87.6% | 
B20 |  | 87.3% | 
B21 |  | 80.1% | 
